Experimental findings from US20060063208A1 are described below.

The experiment addresses BMP-2 (human) (UniProt P12643). Nature of the experiment: cell-based or functional assay.

Sequence of BMP-2 (human) (P12643 283-396 limits assumed): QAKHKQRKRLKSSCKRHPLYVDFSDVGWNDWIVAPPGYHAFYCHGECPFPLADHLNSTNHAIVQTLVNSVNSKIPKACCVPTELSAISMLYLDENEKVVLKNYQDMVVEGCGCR

In turn, “DRAGON (DRG11-Responsive Axonal Guidance and Outgrowth of Neurite), recombinant, expressed in transfected cells (from UniProt Q7TQ33 49-415) (receptor)” showed a BMP-dependent signaling, Msx2-Luc reporter in 10T1/2 and HepG2 cells of 8 fold; a luciferase activity of the BRE-luc reporter in LLC-PK1 cells of 14 fold.
